This is an account of results in US20250333514A1 (CDR LIFE, published 2025).

In general, Kd refers to the concentration at which binding is half-saturated.

Sequences and labels used below:
B1: M2638 (bispecific antibody)
heavy: EVQLVESGGGLVQPGGSLRLSCAASGFTFSTYAMNWVRQAPGKGLEWVGRIRSKYNNYATYYADSVKGRFTISRDDSKNTLYLQMNSLRAEDTAVYYCVRHGNFGDSYVSWFAYWGQGTLVTVSSASTKGPSVFPLAPSSKSTSGGTAALGCLVKDYFPEPVTVSWNSGALTSGVHTFPAVLQSSGLYSLSSVVTVPSSSLGTQTYICNVNHKPSNTKVDKKVEPKSCGGGGSQEQLVESGGGLVQPGGSLKLSCKASGFDFSTYGVSWVRQAPGKGLEWIGYIDPVYGSTYYASWVNGRFTISSHNAQNTLYLQLNSLTAADTATYFCVRDLYAGSSGYYMIYSLWGPGTLVTVSSGGGGSGGGGSGGGGSGGGGSELVMTQTPSSVSAAVGGTVTIKCQSSQSVYNNLLGWYQQKPGQPPKLLIYSASTLASGVPSRFSGSGSGTEFTLTISGVQADDAASYYCQGTYYNGDWYYPFGGGTEVVVK
light: QAVVTQEPSLTVSPGGTVTLTCGSSTGAVTTSNYANWVQQKPGKSPRGLIGGTNKRAPGVPARFSGSLLGGKAALTISGAQPEDEADYYCALWYSNHWVFGGGTKLTVLGQPKAAPSVTLFPPSSEELQANKATLVCLISDFYPGAVTVAWKADSSPVKAGVETTTPSKQSNNKYAASSYLSLTPEQWKSHRSYSCQVTHEGSTVEKTVAPTECS
notes: Monovalent Fab-scFv: anti-CD3 Fab with the rabbit anti-pMHC scFv on the C-terminus of the Fab heavy chain; also called rabbit hit M2638; HLA-A*02:01/PRAMExCD3 Fab-scFv
B2: M3202 (bispecific antibody)
heavy: EVQLVESGGGLVQPGGSLRLSCAASGFTFSTYAMNWVRQAPGKGLEWVGRIRSKYNNYATYYADSVKGRFTISRDDSKNTLYLQMNSLRAEDTAVYYCVRHGNFGDSYVSWFAYWGQGTLVTVSSASTKGPSVFPLAPSSKSTSGGTAALGCLVKDYFPEPVTVSWNSGALTSGVHTFPAVLQSSGLYSLSSVVTVPSSSLGTQTYICNVNHKPSNTKVDKKVEPKSCGGGGSDIQMTQSPSSLSASVGDRVTITCRSSQSVYNNLLGWYQQKPGKAPKLLIYSASTLASGVPSRFSGSGSGTDFTLTISSLQPEDSATYYCQGTYYTGDWYYPFGCGTKVEIKGGGGSGGGGSGGGGSGGGGSQVQLVESGGGSVQPGRSLRLSCAASGFDFSTYGVSWVRQAPGKCLEWIGYIDPVYGSTHYADSVKGRFTISRDNSKNTLYLQMNSLRAEDTASYYCVRDLYAGSSGYYMIYSLWGQGTSVTVSS
light: QAVVTQEPSLTVSPGGTVTLTCGSSTGAVTTSNYANWVQQKPGKSPRGLIGGTNKRAPGVPARFSGSLLGGKAALTISGAQPEDEADYYCALWYSNHWVFGGGTKLTVLGQPKAAPSVTLFPPSSEELQANKATLVCLISDFYPGAVTVAWKADSSPVKAGVETTTPSKQSNNKYAASSYLSLTPEQWKSHRSYSCQVTHEGSTVEKTVAPTECS
notes: Humanized variant of M2638, monovalent Fab-scFv
B3: M3285 (bispecific antibody)
heavy: EVQLVESGGGLVQPGGSLRLSCAASGFTFSTYAMNWVRQAPGKGLEWVGRIRSKYNNYATYYADSVKGRFTISRDDSKNTLYLQMNSLRAEDTAVYYCVRHGNFGDSYVSWFAYWGQGTLVTVSSASTKGPSVFPLAPSSKSTSGGTAALGCLVKDYFPEPVTVSWNSGALTSGVHTFPAVLQSSGLYSLSSVVTVPSSSLGTQTYICNVNHKPSNTKVDKKVEPKSCGGGGSDIQMTQSPSSLSASVGDRVTITCRSSQSVYNNLLGWYQQKPGKAPKLLIYSASTLASGVPSRFSGSGSGTDFTLTISSLQPEDSATYYCQGTYYTGDWYYPFGCGTKVEIKGGGGSGGGGSGGGGSGGGGSQVQLVESGGGSVQPGRSLRLSCAASGFDFSTYGVSWVRQAPGKCLEWIGYIDPVYGSTHYADSVKGRFTISRDNSKNTLYLQMNSLRAEDTASYYCARDLYAGSSGYYMIYSLWGQGTSVTVSS
light: QAVVTQEPSLTVSPGGTVTLTCGSSTGAVTTSNYANWVQQKPGKSPRGLIGGTNKRAPGVPARFSGSLLGGKAALTISGAQPEDEADYYCALWYSNHWVFGGGTKLTVLGQPKAAPSVTLFPPSSEELQANKATLVCLISDFYPGAVTVAWKADSSPVKAGVETTTPSKQSNNKYAASSYLSLTPEQWKSHRSYSCQVTHEGSTVEKTVAPTECS
notes: as for B2
B4: M3284 (bispecific antibody)
heavy: EVQLVESGGGLVQPGGSLRLSCAASGFTFSTYAMNWVRQAPGKGLEWVGRIRSKYNNYATYYADSVKGRFTISRDDSKNTLYLQMNSLRAEDTAVYYCVRHGNFGDSYVSWFAYWGQGTLVTVSSASTKGPSVFPLAPSSKSTSGGTAALGCLVKDYFPEPVTVSWNSGALTSGVHTFPAVLQSSGLYSLSSVVTVPSSSLGTQTYICNVNHKPSNTKVDKKVEPKSCGGGGSDIQMTQSPSSLSASVGDRVTITCRSSQSVYNNLLGWYQQKPGKAPKLLIYSASTLASGVPSRFSGSGSGTDFTLTISSLQPEDSATYYCQGTYYTGDWYYPFGCGTKVEIKGGGGSGGGGSGGGGSGGGGSQVQLVESGGGSVQPGRSLRLSCAASGFTVSTYGVSWVRQAPGKCLEWIGYIDPVYGSTHYADSVKGRFTISRDNSKNTLYLQMNSLRAEDTASYYCVRDLYAGSSGYYMIYSLWGQGTSVTVSS
light: QAVVTQEPSLTVSPGGTVTLTCGSSTGAVTTSNYANWVQQKPGKSPRGLIGGTNKRAPGVPARFSGSLLGGKAALTISGAQPEDEADYYCALWYSNHWVFGGGTKLTVLGQPKAAPSVTLFPPSSEELQANKATLVCLISDFYPGAVTVAWKADSSPVKAGVETTTPSKQSNNKYAASSYLSLTPEQWKSHRSYSCQVTHEGSTVEKTVAPTECS
notes: as for B2
B5: M3182 (bispecific antibody)
heavy: EVQLVESGGGLVQPGGSLRLSCAASGFTFSTYAMNWVRQAPGKGLEWVGRIRSKYNNYATYYADSVKGRFTISRDDSKNTLYLQMNSLRAEDTAVYYCVRHGNFGDSYVSWFAYWGQGTLVTVSSASTKGPSVFPLAPSSKSTSGGTAALGCLVKDYFPEPVTVSWNSGALTSGVHTFPAVLQSSGLYSLSSVVTVPSSSLGTQTYICNVNHKPSNTKVDKKVEPKSCGGGGSDIQMTQSPSSLSASVGDRVTITCRSSQSVYNNLLGWYQQKPGKAPKLLIYSASTLASGVPSRFSGSGSGTDFTLTISSLQPEDFATYYCQGTYYTGDWYYPFGCGTKVEIKGGGGSGGGGSGGGGSGGGGSQVQLVESGGGSVQPGRSLRLSCAASGFDFSTYGVSWVRQAPGKCLEWIGYIDPVYGSTHYADSVKGRFTISRDNSKNTLYLQMNSLRAEDTASYYCVRDLYAGSSGYYMIYSLWGQGTSVTVSS
light: QAVVTQEPSLTVSPGGTVTLTCGSSTGAVTTSNYANWVQQKPGKSPRGLIGGTNKRAPGVPARFSGSLLGGKAALTISGAQPEDEADYYCALWYSNHWVFGGGTKLTVLGQPKAAPSVTLFPPSSEELQANKATLVCLISDFYPGAVTVAWKADSSPVKAGVETTTPSKQSNNKYAASSYLSLTPEQWKSHRSYSCQVTHEGSTVEKTVAPTECS
notes: as for B2
B6: M3283 (bispecific antibody)
heavy: EVQLVESGGGLVQPGGSLRLSCAASGFTFSTYAMNWVRQAPGKGLEWVGRIRSKYNNYATYYADSVKGRFTISRDDSKNTLYLQMNSLRAEDTAVYYCVRHGNFGDSYVSWFAYWGQGTLVTVSSASTKGPSVFPLAPSSKSTSGGTAALGCLVKDYFPEPVTVSWNSGALTSGVHTFPAVLQSSGLYSLSSVVTVPSSSLGTQTYICNVNHKPSNTKVDKKVEPKSCGGGGSDIQMTQSPSSLSASVGDRVTITCRSSQSVYNNLLGWYQQKPGKAPKLLIYSASTLASGVPSRFSGSGSGTDFTLTISSLQPEDSATYYCQGTYYTGDWYYPFGCGTKVEIKGGGGSGGGGSGGGGSGGGGSQVQLVESGGGSVQPGRSLRLSCAASGFTFSTYGVSWVRQAPGKCLEWIGYIDPVYGSTHYADSVKGRFTISRDNSKNTLYLQMNSLRAEDTASYYCVRDLYAGSSGYYMIYSLWGQGTSVTVSS
light: QAVVTQEPSLTVSPGGTVTLTCGSSTGAVTTSNYANWVQQKPGKSPRGLIGGTNKRAPGVPARFSGSLLGGKAALTISGAQPEDEADYYCALWYSNHWVFGGGTKLTVLGQPKAAPSVTLFPPSSEELQANKATLVCLISDFYPGAVTVAWKADSSPVKAGVETTTPSKQSNNKYAASSYLSLTPEQWKSHRSYSCQVTHEGSTVEKTVAPTECS
notes: as for B2
B7: M2913 (bispecific antibody)
heavy: EVQLVESGGGLVQPGGSLRLSCAASGFTFSTYAMNWVRQAPGKGLEWVGRIRSKYNNYATYYADSVKGRFTISRDDSKNTLYLQMNSLRAEDTAVYYCVRHGNFGDSYVSWFAYWGQGTLVTVSSASTKGPSVFPLAPSSKSTSGGTAALGCLVKDYFPEPVTVSWNSGALTSGVHTFPAVLQSSGLYSLSSVVTVPSSSLGTQTYICNVNHKPSNTKVDKKVEPKSCGGGGSDIQMTQSPSSLSASVGDRVTITCQSSQSVYNNLLGWYQQKPGKAPKLLIYSASTLASGVPSRFSGSGSGTDFTLTISSLQPEDFATYYCQGTYYNGDWYYPFGCGTKVEIKGGGGSGGGGSGGGGSGGGGSEVQLVESGGGSVQPGGSLRLSCAASGFDFSTYGVSWVRQAPGKCLEWIGYIDPVYGSTYYASWVNGRFTISRDNSKNTLYLQMNSLRAEDTASYYCVRDLYAGSSGYYMIYSLWGQGTSVTVSS
light: QAVVTQEPSLTVSPGGTVTLTCGSSTGAVTTSNYANWVQQKPGKSPRGLIGGTNKRAPGVPARFSGSLLGGKAALTISGAQPEDEADYYCALWYSNHWVFGGGTKLTVLGQPKAAPSVTLFPPSSEELQANKATLVCLISDFYPGAVTVAWKADSSPVKAGVETTTPSKQSNNKYAASSYLSLTPEQWKSHRSYSCQVTHEGSTVEKTVAPTECS
notes: as for B2

For this assay, the target named is T1, HLA-A*02:01/PRAME antigen (recombinant, … on HLA-A*02:01) (human, Complex biotinylated for SPR capture; site of biotin and any tag not stated, not in the letters.).
T1 construct: also called PRAME target; pMHC
The assay can be described thus: SPR (Biacore 8K), biotinylated pMHC captured, Fab-scFv analyte, single-cycle kinetics, 1:1 fit. The protocol: Recombinantly produced hits in Fab-scFv format, as described in Example 4, were evaluated for their ability to bind HLA-A*02:01/PRAME antigen. Binding characterization was performed by surface plasmon resonance (SPR) using a Biacore™ 8k (Cytiva) device. Briefly, 3000 RU of Biotin CAPture reagent (Cytiva) was immobilized on a Series S Sensor Chip CAP (Cytiva) and the biotinylated ligand HLA-A*02:01/PRAME (SEQ ID NO: 68) was diluted in HPS-EP+ running buffer (TEKNOVA) and captured for 300 s at a flow rate of 2 μL/min at flow cell 2 resulting in a ligand capture level of >100 RU. Subsequently, at least three consecutive analyte injections were performed at suitable concentrations applying the single-cycle-kinetics mode at a flow rate of 30 μL/min with an association time of 90 s and the dissociation time set to >400 s. The chip surface was regenerated according to the manufacturer's instructions. After reference flow cell signal and blank injections subtraction, the data was fit to a 1:1 Langmuir binding model to determine the association rate constant kₐ and dissociation rate constant kd and calculate the equilibrium dissociation constant KD (kd/kₐ), also denoted as affinity, using the Biacore™ Insight Evaluation software.
As for B1, the Kd is 230 pM.

Regarding B2, the dissociation constant Kd is 40 pM.

On to B3, for which the Kd came to 1300 pM.

Take B4: the dissociation constant (Kd) amounted to 270 pM.

On to B5, for which the dissociation constant (Kd) worked out at 40 pM.

For B6, the dissociation constant Kd is 90 pM.

As for B7, the dissociation constant (Kd) amounted to 660 pM.
